Test [1] concerns the target T1, DR4 (TRAIL-R1) Fc, recombinant receptor from R&D Systems (UniProt O00220 24-239, limits assumed).
T1 construct: also called soluble TRAIL-R1 Fc; not shown: Fc part of the bought Fc fusion
Briefly: SPR (Biacore): clarified E. coli extract diluted 1:50 injected over immobilised DR4, DR5, DcR1 and RANK; bars are the response as a fraction of the DR5 response. The procedure: (§1) Control extracts of BL21 (DE3) culture without an over-expression plasmid and of a BL21 (DE3) culture with plasmid over-expressing SH3 domain were also injected.

Test [2] concerns the target T1, DR4 (TRAIL-R1) Fc, recombinant receptor …. In words: SPR (Biacore 3000, 25 C): ligand at 2 ug/ml injected over receptor amine-coupled to a CM5 chip. The procedure:
Binding experiments were performed using a surface plasmon resonance-based biosensor Biacore 3000 (Biacore AB, Uppsala, Sweden), at 25° C. Recombinant receptors were ordered from R&D systems (R&D systems, Minneapolis, Minn., USA). Immobilization of the receptors on the sensor surface of a Biacore CM5 sensor chip was performed following a standard amine coupling procedure according to the manufacturer's instructions. A reference surface was generated simultaneously under the same conditions but without receptor injection and used as a blank to correct for instrument and buffer artifacts. […] Binding of ligands to the receptors was monitored in real-time. The receptor/sensor surface was regenerated using 3 M sodium acetate pH 5.2 injections.

The target in test [3] is T2, murine RANK (receptor) (murine, UniProt O35305 31-214, limits assumed).
T2 construct: Control surface in the SPR screening
T2 sequence (looked up): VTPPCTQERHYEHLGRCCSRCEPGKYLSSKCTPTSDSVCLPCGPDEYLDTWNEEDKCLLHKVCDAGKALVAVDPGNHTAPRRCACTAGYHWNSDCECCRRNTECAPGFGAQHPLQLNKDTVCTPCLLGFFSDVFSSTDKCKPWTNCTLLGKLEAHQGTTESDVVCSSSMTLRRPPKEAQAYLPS
In words: SPR (Biacore): clarified E. coli extract diluted 1:50 injected over immobilised DR4, DR5, DcR1 and RANK; bars are the response as a fraction of the DR4 response. The procedure: as §1

Test [4] deals with T1, DR4 (TRAIL-R1) Fc, recombinant receptor …. Briefly: SPR (Biacore 3000, 37 C): purified ligand at 60 nM over immobilised receptor Fc.
For test [5] the target is unchanged. Briefly: SPR, Biacore 3000, 37 C, receptor Fc on CM5 chip, ligand 0.1-250 nM. The procedure: (§2) Binding experiments were performed using a surface plasmon resonance-based biosensor Biacore 3000 (Biacore AB, Uppsala, Sweden), at 37° C. Recombinant receptors were ordered from R&D systems (R&D systems, Minneapolis, Minn., USA). […] Receptors were coated at a level of ~600-800 RU. […] Between injections the receptor/sensor surface was regenerated using 30 µl of 3 M sodium acetate pH 5.2.

For test [6], the target named is T3, DR5 (TRAIL-R2) Fc, recombinant receptor from R&D Systems (UniProt O14763 54-182, limits assumed).
T3 construct: also called soluble TRAIL-R2 Fc; immobilized TRAIL-R2 Fc; not shown: Fc part of the bought Fc fusion
T3 sequence (O14763 54-182 limits assumed): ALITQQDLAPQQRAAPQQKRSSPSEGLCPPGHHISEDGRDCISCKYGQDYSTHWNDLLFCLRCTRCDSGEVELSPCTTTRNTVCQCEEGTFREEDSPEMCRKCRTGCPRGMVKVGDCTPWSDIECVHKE
The description is as above. As to the method: as §2

T1 sequence (O00220 24-239 limits assumed): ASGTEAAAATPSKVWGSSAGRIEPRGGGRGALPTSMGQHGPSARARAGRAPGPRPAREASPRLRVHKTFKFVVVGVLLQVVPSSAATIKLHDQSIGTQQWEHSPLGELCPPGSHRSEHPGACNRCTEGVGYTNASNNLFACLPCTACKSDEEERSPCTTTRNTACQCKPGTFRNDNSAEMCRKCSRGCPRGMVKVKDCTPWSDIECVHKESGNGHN

B1: TRAIL mutant D218F (ligand)
chain: VRERGPQRVAAHITGTRGRSNTLSSPNSKNEKALGRKINSWESSRSGHSFLSNLHLRNGELVIHEKGFYYIYSQTYFRFQEEIKENTKNDKQMVQYIYKYTSYPFPILLMKSARNSCWSKDAEYGLYSIYQGGIFELKENDRIFVSVTNEHLIDMDHEASFFGAFLVG
Regarding B1, the binding result in test [1] is recorded as “binds”.

B2: TRAIL mutant M2 (D203I, Q205M, Y237F) (ligand)
chain: VRERGPQRVAAHITGTRGRSNTLSSPNSKNEKALGRKINSWESSRSGHSFLSNLHLRNGELVIHEKGFYYIYSQTYFRFQEEIKENTKNIKMMVQYIYKYTSYPDPILLMKSARNSCWSKDAEFGLYSIYQGGIFELKENDRIFVSVTNEHLIDMDHEASFFGAFLVG
notes: Stability mutant built on soluble TRAIL 114-281
Consider B2, for which the binding result in test [2] is reported as “binds”.

B3: TRAIL mutant D218R (ligand)
chain: VRERGPQRVAAHITGTRGRSNTLSSPNSKNEKALGRKINSWESSRSGHSFLSNLHLRNGELVIHEKGFYYIYSQTYFRFQEEIKENTKNDKQMVQYIYKYTSYPRPILLMKSARNSCWSKDAEYGLYSIYQGGIFELKENDRIFVSVTNEHLIDMDHEASFFGAFLVG
For the molecule B3, the figures for the binding result in test [1] and in test [3] were “binds” and “no binding”, respectively.

B4: TRAIL mutant G160K (ligand)
chain: VRERGPQRVAAHITGTRGRSNTLSSPNSKNEKALGRKINSWESSRSKHSFLSNLHLRNGELVIHEKGFYYIYSQTYFRFQEEIKENTKNDKQMVQYIYKYTSYPDPILLMKSARNSCWSKDAEYGLYSIYQGGIFELKENDRIFVSVTNEHLIDMDHEASFFGAFLVG
For B4, the binding result in test [1] is “binds”; in test [3], “no binding”.

B5: TRAIL mutant R130E (ligand)
chain: VRERGPQRVAAHITGTEGRSNTLSSPNSKNEKALGRKINSWESSRSGHSFLSNLHLRNGELVIHEKGFYYIYSQTYFRFQEEIKENTKNDKQMVQYIYKYTSYPDPILLMKSARNSCWSKDAEYGLYSIYQGGIFELKENDRIFVSVTNEHLIDMDHEASFFGAFLVG
As for B5, the binding result was “binds” in test [1] and “no binding” in test [3].

B6: TRAIL mutant D269HT214R (ligand)
chain: VRERGPQRVAAHITGTRGRSNTLSSPNSKNEKALGRKINSWESSRSGHSFLSNLHLRNGELVIHEKGFYYIYSQTYFRFQEEIKENTKNDKQMVQYIYKYRSYPDPILLMKSARNSCWSKDAEYGLYSIYQGGIFELKENDRIFVSVTNEHLIDMHHEASFFGAFLVG
notes: also called T214R-D269H
As for B6, the binding result in test [4] was “no binding (tested: 60 nM)”.

B7: TRAIL mutant D269K (ligand)
chain: VRERGPQRVAAHITGTRGRSNTLSSPNSKNEKALGRKINSWESSRSGHSFLSNLHLRNGELVIHEKGFYYIYSQTYFRFQEEIKENTKNDKQMVQYIYKYTSYPDPILLMKSARNSCWSKDAEYGLYSIYQGGIFELKENDRIFVSVTNEHLIDMKHEASFFGAFLVG
For B7, the “fold reduction in binding relative to wild-type TRAIL” value in test [5] is above 15 fold. Moreover, the “fold improvement in binding relative to wild-type TRAIL” value in test [6] is above 10 fold.

B8: TRAIL mutant D269R (ligand)
chain: VRERGPQRVAAHITGTRGRSNTLSSPNSKNEKALGRKINSWESSRSGHSFLSNLHLRNGELVIHEKGFYYIYSQTYFRFQEEIKENTKNDKQMVQYIYKYTSYPDPILLMKSARNSCWSKDAEYGLYSIYQGGIFELKENDRIFVSVTNEHLIDMRHEASFFGAFLVG
On to B8, for which the “fold reduction in binding relative to wild-type TRAIL” value in test [5] was above 15 fold. Besides, the “fold improvement in binding relative to wild-type TRAIL” value in test [6] was above 10 fold.

B9: TRAIL mutant I220H (ligand)
chain: VRERGPQRVAAHITGTRGRSNTLSSPNSKNEKALGRKINSWESSRSGHSFLSNLHLRNGELVIHEKGFYYIYSQTYFRFQEEIKENTKNDKQMVQYIYKYTSYPDPHLLMKSARNSCWSKDAEYGLYSIYQGGIFELKENDRIFVSVTNEHLIDMDHEASFFGAFLVG
As for B9, in test [1], the binding result was “binds”.

B10: TRAIL mutant D269HE195R (ligand)
chain: VRERGPQRVAAHITGTRGRSNTLSSPNSKNEKALGRKINSWESSRSGHSFLSNLHLRNGELVIHEKGFYYIYSQTYFRFQERIKENTKNDKQMVQYIYKYTSYPDPILLMKSARNSCWSKDAEYGLYSIYQGGIFELKENDRIFVSVTNEHLIDMHHEASFFGAFLVG
On to B10, for which, in test [5], the “fold reduction in binding relative to wild-type TRAIL” value is above 15 fold. In addition, the “fold improvement in binding relative to wild-type TRAIL” value in test [6] was above 10 fold.

B11: TRAIL mutant R191ED267R (ligand)
chain: VRERGPQRVAAHITGTRGRSNTLSSPNSKNEKALGRKINSWESSRSGHSFLSNLHLRNGELVIHEKGFYYIYSQTYFEFQEEIKENTKNDKQMVQYIYKYTSYPDPILLMKSARNSCWSKDAEYGLYSIYQGGIFELKENDRIFVSVTNEHLIRMDHEASFFGAFLVG
B11: the binding result in test [4] is on record as “no binding (tested: 60 nM)”.

B12: TRAIL mutant R149D (ligand)
chain: VRERGPQRVAAHITGTRGRSNTLSSPNSKNEKALGDKINSWESSRSGHSFLSNLHLRNGELVIHEKGFYYIYSQTYFRFQEEIKENTKNDKQMVQYIYKYTSYPDPILLMKSARNSCWSKDAEYGLYSIYQGGIFELKENDRIFVSVTNEHLIDMDHEASFFGAFLVG
For the molecule B12, the binding result in test [1] was “binds”.

B13: TRAIL mutant E155M (ligand)
chain: VRERGPQRVAAHITGTRGRSNTLSSPNSKNEKALGRKINSWMSSRSGHSFLSNLHLRNGELVIHEKGFYYIYSQTYFRFQEEIKENTKNDKQMVQYIYKYTSYPDPILLMKSARNSCWSKDAEYGLYSIYQGGIFELKENDRIFVSVTNEHLIDMDHEASFFGAFLVG
On to B13, for which the binding result in test [1] is “binds”.

B14: TRAIL mutant M1 (E194I, I196S) (ligand)
chain: VRERGPQRVAAHITGTRGRSNTLSSPNSKNEKALGRKINSWESSRSGHSFLSNLHLRNGELVIHEKGFYYIYSQTYFRFQIESKENTKNDKQMVQYIYKYTSYPDPILLMKSARNSCWSKDAEYGLYSIYQGGIFELKENDRIFVSVTNEHLIDMDHEASFFGAFLVG
notes: as for B2
B14: the binding result in test [2] was “binds”.

B15: TRAIL mutant D218Y (ligand)
chain: VRERGPQRVAAHITGTRGRSNTLSSPNSKNEKALGRKINSWESSRSGHSFLSNLHLRNGELVIHEKGFYYIYSQTYFRFQEEIKENTKNDKQMVQYIYKYTSYPYPILLMKSARNSCWSKDAEYGLYSIYQGGIFELKENDRIFVSVTNEHLIDMDHEASFFGAFLVG
Consider B15, for which the binding result in test [1] is given as “binds”; in test [3], “no binding”.

B16: TRAIL mutant I220M (ligand)
chain: VRERGPQRVAAHITGTRGRSNTLSSPNSKNEKALGRKINSWESSRSGHSFLSNLHLRNGELVIHEKGFYYIYSQTYFRFQEEIKENTKNDKQMVQYIYKYTSYPDPMLLMKSARNSCWSKDAEYGLYSIYQGGIFELKENDRIFVSVTNEHLIDMDHEASFFGAFLVG
As for B16, the binding result in test [1] is “binds”.

B17: TRAIL mutant R149H (ligand)
chain: VRERGPQRVAAHITGTRGRSNTLSSPNSKNEKALGHKINSWESSRSGHSFLSNLHLRNGELVIHEKGFYYIYSQTYFRFQEEIKENTKNDKQMVQYIYKYTSYPDPILLMKSARNSCWSKDAEYGLYSIYQGGIFELKENDRIFVSVTNEHLIDMDHEASFFGAFLVG
On to B17, for which the binding result in test [1] was “binds”.

B18: TRAIL mutant G131R (ligand)
chain: VRERGPQRVAAHITGTRRRSNTLSSPNSKNEKALGRKINSWESSRSGHSFLSNLHLRNGELVIHEKGFYYIYSQTYFRFQEEIKENTKNDKQMVQYIYKYTSYPDPILLMKSARNSCWSKDAEYGLYSIYQGGIFELKENDRIFVSVTNEHLIDMDHEASFFGAFLVG
For the molecule B18, the binding result in test [1] is on record as “binds”; in test [3] it was “no binding”.

Values taken from patent US7994281 (EUROPEAN MOLECULAR BIOLOGY LABORATORY, dated 2011).
